These results are taken from patent US8586538B2, “Method of treating a patient suffering from a bleeding disorder comprising administering an antibody against the A3-C1 of FVIII” (Stichting Sanquin Bloedvoorziening, priority 2002, dated 2013).

The experiment deals with T1, interaction between FVIII light chain and LRP cluster II (Homo sapiens, UniProt P00451).
T1 construct: Recombinant LRP clusters II or IV (1 pmol/well) were adsorbed onto microtiter wells; made in house; host or cells: LRP cluster II: BHK cells; FVIII light chain: plasma-derived
T1 sequence (P00451 1668-2351): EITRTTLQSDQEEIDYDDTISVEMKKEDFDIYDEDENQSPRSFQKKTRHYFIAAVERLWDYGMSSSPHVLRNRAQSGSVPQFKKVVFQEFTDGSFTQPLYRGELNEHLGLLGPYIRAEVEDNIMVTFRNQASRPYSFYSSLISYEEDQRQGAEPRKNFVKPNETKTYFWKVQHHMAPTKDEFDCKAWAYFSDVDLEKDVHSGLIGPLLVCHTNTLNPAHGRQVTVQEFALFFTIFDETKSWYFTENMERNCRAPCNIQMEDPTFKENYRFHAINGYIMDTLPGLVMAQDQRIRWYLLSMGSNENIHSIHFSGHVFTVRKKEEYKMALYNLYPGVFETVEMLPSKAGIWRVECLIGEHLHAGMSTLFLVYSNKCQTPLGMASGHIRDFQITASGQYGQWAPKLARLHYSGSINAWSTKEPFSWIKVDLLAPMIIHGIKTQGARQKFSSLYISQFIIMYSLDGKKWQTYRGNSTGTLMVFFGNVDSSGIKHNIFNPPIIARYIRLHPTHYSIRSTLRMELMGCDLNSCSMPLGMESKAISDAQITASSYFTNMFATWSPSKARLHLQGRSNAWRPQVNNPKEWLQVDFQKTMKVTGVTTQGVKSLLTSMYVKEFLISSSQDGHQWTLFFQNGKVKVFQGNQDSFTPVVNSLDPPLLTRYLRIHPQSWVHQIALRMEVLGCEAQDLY
Nature of the experiment: Solid-phase competition: FVIII light chain binding to immobilized LRP cluster II. The following applies: FVIII light chain 25 nM. Here is the method:
FIG. 4. Effect of scFv antibody fragments on the interaction between FVIII light chain and LRP. A, FVIII light chain (LCh) (25 nM) was incubated with immobilized LRP cluster II (1 pmol/well) in a volume of 50 μl in 150 mM NaCl, 5 mM CaCl2, 1% (w/v) HSA, 0.1% Tween® 20, and 50 mM Tris (pH 7.4) in the presence of various concentrations (0-100 nM) of scFv KM41 (closed circles) or scFv KM36 (open circles) for 2 h at 37° C. After washing with the same buffer, bound FVIII light chain was quantified by incubation with peroxidase-conjugated anti-FVIII antibody CLB-CAg 12 for 15 min at 37° C. Residual binding is expressed as the percentage of binding in the absence of competitor and is corrected for nonspecific binding (less than 5% relative to binding to LRP cluster II-immobilized wells). Data represent the mean±S.D. of three experiments. B, FVIII light chain (50 nM) was incubated with immobilized LRP (16 fmol/mm^2) as described in the legend of FIG. 1. Binding was assessed in the absence (curve 1) or in the presence of increasing concentrations of scFv KM41 (20, 60, 300, 500 nM, curves 2-5, respectively). Complexes were allowed to form for 30 min before SPR analysis.
FIG. 5. Effect of scFv KM33 on the interaction between FVIII light chain and LRP. FVIII light chain (LCh) (25 nM) was incubated with immobilized LRP cluster II (1 pmol/well) in a volume of 50 μl in 150 mM NaCl, 5 mM CaCl2, 1% (w/v) HSA, 0.1% Tween® 20, and 50 mM Tris (pH 7.4) in the presence of various concentrations (0-30 nM) of scFv KM36 (open circles) or scFv KM33 (closed circles) for 2 h at 37° C. After washing with the same buffer, bound FVIII Light chain was quantified by incubation with peroxidase-conjugated anti-FVIII antibody CLB-CAg 12 for 15 min at 37° C. Residual binding is expressed as the percentage of binding in the absence of competitor and is corrected for nonspecific binding (less than 5% relative to binding to cluster-coated wells). Data represent the mean±S.D. of three experiments.
Recombinant LRP clusters II or IV (1 pmol/well) were adsorbed onto microtiter wells in 50 mM NaHCO3 (pH 9.8) in a volume of 50 μl for 16 h at 4° C. Wells were blocked with 2% (w/v) HSA, 150 mM NaCl, 5 mM CaCl2, and 50 mM Tris (pH 7.4) in a volume of 200 μl for 1 h at 37° C. After three rapid washes (less than 5 seconds each) with 150 mM NaCl, 5 mM CaCl2, 0.1% (v/v) Tween® 20, and 50 mM Tris (pH 7.4), FVIII light chain or its derivatives were incubated at various concentrations in a volume of 50 μl in a buffer containing 150 mM NaCl, 5 mM CaCl2, 1% (w/v) HSA, 0.1% (v/v) Tween® 20, and 50 mM Tris (pH 7.4) for 2 h. at 37° C. Bound ligand was detected by incubating with peroxidase-conjugated monoclonal antibody CLB-CAg 12 in the same buffer for 15 min at 37° C. […] In competition experiments, FVIII light chain (25 nM) was incubated with wells containing immobilized LRP clusters, either in the presence or absence of serial dilutions of competitor in a volume of 50 μl for 2 h at 37° C. Residual FVIII binding was detected as described above. Data were corrected for binding to empty microtiter wells, which was less than 5% relative to binding to wells containing immobilized LRP clusters.
(Note to Table II: Effect of FVIII a3-A3-C1 fragment derived synthetic peptides on the interaction between FVIII light chain and LRP cluster II. FVIII light chain (25 nM) was incubated with immobilized LRP cluster II (1 pmol/well) in a volume of 50 μl in 150 mM NaCl, 5 mM CaCl2, 1% (w/v) HSA, 0.1% Tween® 20, and 50 mM Tris (pH 7.4) in the presence or absence of various concentrations of synthetic peptide (0-1 mM) for 2 h at 37° C. After washing with the same buffer, bound FVIII light chain was quantified by incubation with peroxidase-conjugated anti-FVIII antibody CLB-CAg 12 for 15 min at 37° C. Half-maximum inhibition constants (IC50) represent the mean values±S.D. of three experiments.)

B1: scFv KM41: scFv antibody fragment directed against FVIII region Arg^1803-Lys^1818 (protein)
scFv: QVQLLQSAADVKKPGASVKVSCTASGYIFTSYDIDWVRQATGQGLEWMGWMNPNSGNAGFAQKFKGRLTLTRDTSTSTAYMELRRLESEDTAVYYCARSTPHSYSGSGLPPTSDSWGQGTLVTVSSGGGGSGGGGSGGGGSEIVLTQSPGTLSLSPGERATLSCRASQSVSSSFLGWYQQKPGQAPRLLIYGASSRATGIPDRFSGSGSGTDFTLTISRLEPEDFAVYYCQQYGISPLTFGGGTKLEIKRAAAEQKLISEEDLNGAAHHHHHH
As for B1, the “Effect on binding of FVIII light chain to immobilized LRP cluster II” value was “inhibited the binding”.
